# From PMC2990340
# T1: CsdE-myc-His6 (E. coli K12 MG1655), P0AGF2
# T1 chain: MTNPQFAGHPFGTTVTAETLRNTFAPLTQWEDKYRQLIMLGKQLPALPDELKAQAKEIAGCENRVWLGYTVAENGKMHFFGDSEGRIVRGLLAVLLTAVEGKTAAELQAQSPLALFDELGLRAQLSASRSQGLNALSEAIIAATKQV
# B1: CsdE-myc-His6, P0AGF2 1-147 (natural protein)
# chain: T1 chain
# Target: T1, CsdE-myc-His6 (E. coli K12 MG1655), …
# Assay: affinity purification with mass spectrometry
# Details: remark: other sources report otherwise
binder,measurement,value
B1,stoichiometry N,2
